Experiment [1] deals with T1, human TrkA ECD (human).
T1 chain: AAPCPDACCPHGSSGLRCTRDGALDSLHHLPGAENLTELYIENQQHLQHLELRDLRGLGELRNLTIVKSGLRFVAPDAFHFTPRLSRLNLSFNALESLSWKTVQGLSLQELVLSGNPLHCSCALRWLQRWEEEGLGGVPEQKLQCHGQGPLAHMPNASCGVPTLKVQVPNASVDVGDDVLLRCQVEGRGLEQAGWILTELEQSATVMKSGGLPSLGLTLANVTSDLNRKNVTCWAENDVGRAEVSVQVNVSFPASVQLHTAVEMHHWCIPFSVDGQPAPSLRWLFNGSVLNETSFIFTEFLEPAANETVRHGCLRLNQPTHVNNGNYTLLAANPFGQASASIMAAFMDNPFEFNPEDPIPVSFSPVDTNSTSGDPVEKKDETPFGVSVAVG
In words: BLI. In general terms: Biolayer interferometry detects binding as a change in optical thickness at a sensor tip.

For a further experiment, the target named is TrkA (cell surface) (human). The experiment is described as follows: FACS. A general note: A flow cytometer gives signals particle by particle.
In experiment [2] the target is T1, human TrkA ECD. The experiment is described as follows: BLI.

By Kd is commonly meant the equilibrium constant for the complex coming apart. Higher therefore signals a looser complex. In general, EC50 refers to the concentration needed to bring the measured effect to its halfway point. Low values mean higher potency in that assay, high ones lower potency in that assay.

Like-named read-outs stand apart in the source and are kept apart here.

Sequence of TrkA (cell surface) (human) (B2R6T5 whole entry, the tested form may be a part): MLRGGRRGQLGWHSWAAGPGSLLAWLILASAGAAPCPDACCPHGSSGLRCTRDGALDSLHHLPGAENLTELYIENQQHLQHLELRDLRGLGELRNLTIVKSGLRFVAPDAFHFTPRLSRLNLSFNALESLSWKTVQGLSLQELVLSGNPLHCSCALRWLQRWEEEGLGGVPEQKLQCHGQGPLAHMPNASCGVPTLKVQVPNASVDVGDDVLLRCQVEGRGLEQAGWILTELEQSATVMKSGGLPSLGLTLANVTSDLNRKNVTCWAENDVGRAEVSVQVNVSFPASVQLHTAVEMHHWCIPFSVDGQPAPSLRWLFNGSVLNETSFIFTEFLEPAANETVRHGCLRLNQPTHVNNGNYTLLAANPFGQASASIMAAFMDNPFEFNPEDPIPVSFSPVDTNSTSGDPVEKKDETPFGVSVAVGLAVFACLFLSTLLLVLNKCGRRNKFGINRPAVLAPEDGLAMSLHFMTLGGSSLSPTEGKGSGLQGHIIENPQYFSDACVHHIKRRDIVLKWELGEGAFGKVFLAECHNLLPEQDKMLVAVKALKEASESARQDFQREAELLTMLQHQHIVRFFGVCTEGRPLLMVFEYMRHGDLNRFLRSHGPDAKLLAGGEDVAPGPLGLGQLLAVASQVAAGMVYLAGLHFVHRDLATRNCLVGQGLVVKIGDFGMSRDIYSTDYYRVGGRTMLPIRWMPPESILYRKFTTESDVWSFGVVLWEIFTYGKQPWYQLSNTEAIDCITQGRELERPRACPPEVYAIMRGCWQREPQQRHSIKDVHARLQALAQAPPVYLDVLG

B1: Chi70D3A6 (antibody, V domains shown)
VH: EVKLVESGGDLVKPGGSLKLSCTASGFTFTYYAMSWVRQTPEKRLEWVATISGGGDTYYLDSVKGRFTISRDNAGNILYLQMSSLRSEDTAMYYCARGVGGNFFDYWGQGSTLTVSS
VL: QIVLTQSPAIMSASPGEKVTISCSASSSVSYMYWYQQKPGSSPKPFIYRTSNLASGVPSRFSGSGSGTSYSLTVSTMEAEDAATYYCQLYHSYTPITFGAGTKLELK
B1 had a Kd with human TrkA ECD [1] of 0.771 nM.

B2: Chi99H4D5 (antibody, V domains shown)
VH: EVKLVESGGGLVKPGGSLKLSCAASGFTFSYYAISWLRQTPEKRLEWVASISGNGDTYYLDSVKGRFTISRDNARNILYLQMSSLRSEDTAMYYCARGVGGNYFDYWGQGTTLTVSS
VL: DIVMTQSPAIMSASPGEKVTISCSASSSVSYMYWYQQKPGSSPKPLIYRTSNLASGVPARFSGSGSGTSYSLTISTMEAEDAATYYCQQYHSYTPITFGAGTKLDLK
On to B2, for which binding with human TrkA ECD [1] was put at a Kd of 1.3 nM.

B3: Hu70D3A6-V12 (antibody, V domains shown)
VH: EVQLVESGGGLVKPGGSLRLSCAASGFTFTYYAMSWVRQAPGKGLEWVSSISGGGDVYYADSVKGRFTISRDNAKNTLYLQMNSLRAEDTAVYYCARGVGGNYFDYWGQGTLVTVSS
VL: DIQMTQSPSSLSASVGDRVTITCSASSSVSYMYWYQQKPGKAPKPLIYRTSNLASGVPSRFSGSGSGTDFTLTISSLQPEDFATYYCQLYHSYTPITFGQGTKLEIK
As for B3, the EC50 in the experiment with TrkA (cell surface) was approximately 0.289 nM. In the experiment with human TrkA ECD [2], the equilibrium dissociation constant (Kd) is 0.591 nM.

B4: Hu99H4D5-V6 (antibody, V domains shown)
VH: EVQLVESGGGLVKPGGSLRLSCAASGFTFSYYAISWVRQAPGKGLEWVSSISGGGDVYYADSVKGRFTISRDNAKNTLYLQMNSLRAEDTAVYYCARGVGGNYFDYWGQGTLVTVSS
VL: DIQMTQSPSSLSASVGDRVTITCSASSSVSYMYWYQQKPGKAPKPLIYRTSNLASGVPSRFSGSGSGTDFTLTISSLQPEDFATYYCQQYHSYTPITFGQGTKLEIK
The molecule B4 gave an EC50 with TrkA (cell surface) of approximately 0.362 nM. The molecule also came in with an equilibrium dissociation constant (Kd) with human TrkA ECD [2] of 0.753 nM.

The record behind these values is patent US20260365740 (published 2026).
